Laboratory results as given in the supplement of paper PMC9170038.

Tested on: MS2 coat protein
Test: apparent KD of MS2 coat protein; higher = weaker reporter binding
Conditions: Eterna round: R107
Method: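 RNA-MaP round R107: designed RNA switches with theophylline, tryptophan, arginine or FMN aptamers are transcribed on-chip within common flanks. They are titrated with SNAP-549-labelled MS2 coat protein in RNA-MaP buffer (100 mM Tris pH 7.5, 80 mM KCl, 4 mM MgCl2), without ligand or with the indicated ligand. Median apparent KD per design.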

[1] = input ligand: theophylline 20 uM
[2] = input ligand: theophylline 2 mM
[3] = input ligand: tryptophan 2.4 mM

Sequence | apparent KD of MS2 coat protein (input ligand: arginine 13.2 mM) [µM] | apparent KD of MS2 coat protein (input ligand: none) [µM] | apparent KD of MS2 coat protein [1] [µM] | apparent KD of MS2 coat protein [2] [µM] | apparent KD of MS2 coat protein [3] [µM]
AGCGUUCAGCUUAUACUGGACAAUGGGUGACGAGGACCGGUACGGCCGCCACUCGGGCGCCCGGUUACAUGAGGAUCACCCAUGU [Vedizaus] | 0.0522 | 0.195 | 0.213 | 0.212 | 0.0205
CACGAAAGAUCGGCCGCCACUAAUCUAUGUGUUCUUUCACAUGAGGAUCACCCAUGUUCUUGCGUUAGGACCGGGAUUGAGCGUG [#02 Exclusion Tryptophan B] | 0.0299 |  | 0.0397 | 0.0366 | 
UUCAGCUAGUCGGCCGCCACUGCAUGAGGAUCACCCAUGUAGGUCCACACUGCUUCGGCAGUGAGUAGGACCGGGACUAGCUGAG | 0.0114 | 0.00941 | 0.0129 | 0.0108 | 0.0137
GUGCGGUCUGAUGAUACCAGAUGUGGUGGGAACAUGAGGAUCACCCAUGUUGUGAGGCAGGUCCCUUGGCAGCAUGAGUGAGCUU [TheoB-ms2@32-2] | 0.0124 | 0.119 | 0.229 | 0.156 | 0.0726
ACAUGAGGAUCACCCAUGUGCAUGAUGAUCCGAGGACCGGUACGGCCGCCACUCGUCAUGAUGAUCUUUCAUGUUUGUCGCGCGC [Flamini II] | 0.0626 |  | 0.326 | 0.422 | 
AUAACUGUAAUAAACCGCAGGCUAGUGGAAGGAGCGCGGAAUAACGCAGGUAGGUCGCCACAAACUUGAGGAUCACCCAGGUGGC [SSAA NP+V+V2 #7 Diff Apt] | 0.0381 | 0.049 | 0.0788 | 0.0577 | 0.0486
CUACAUUUGUAGAAACCGGUCAACAUUAUUCGAGGACCGGUACGGCCGCCACUCGUAUAUUUUUAUACAUGAGGAUCACCCAUGU [Tryptophan A 7] | 0.0144 |  | 0.0144 | 0.013 | 
UAUCCACAUGAGGAUCACCCAUGUAUGGAAGGAGCGGUGAAUGAACCAGGUAGGUCGCCAUGGUGAGGAUCAUCUAUGGAUUCGU [Exclusion - Arginine A (Freestyle 9)] | 0.0303 | 0.0565 | 0.0824 | 0.0722 | 0.0867
ACUUCAUGAGGUGAUACCAGCCAAUGACAUGAGGACAUGAGGAUCACCCAUGUUUAUGUAGGCCCUUGGCAGCACUGUAACAUGA [Same State Theophylline B 4] | 0.0195 |  | 0.0318 |  | 0.0197
AAUUGGGUUGGUGAGGUGGUUGGAGGCGAUACCAGCGUGGAAACACGCCCUUGGCAGCGCCAGGACAUGAGGAUCACCCAUGUUA [Brno] | 0.0489 | 0.131 | 0.16 | 0.448 | 0.175
UGUAUGUGAUUUGAUACCAGACCAGCUGGUGGUAUCUGAGGAUCACCCAGGUAGGUUUGGGUCCCUUGGCAGCAAAUCGCAUACU [SS Theo B #24 Ms15] | 0.145 | 0.186 | 0.892 | 0.335 | 1.72
CCUGGAUCAGAUCUUAAAGGCGGUUCUGAUACCAGUCUUUUCCGAGACCCUUGGCAGCAGAACACAUGAGGAUCACCCAUGUAAA [theeternabot_exclusion_MS2_Theo_A_11] | 0.0291 |  | 0.059 |  | 0.0597
AUACCUAAUGUUACGUUUUCCUUUUCAGAUACCAGACUUUACGUUGUCCCUUGGCAGCUGUAUUACAUGAGGAUCACCCAUGUUG [JR_SSTheophyA_Sub008] | 0.0198 |  | 0.0267 |  | 0.0204
ACAUGAGGAUCACCCAUGUAAAUAACGGAAGGAGCGUGCAAAAGCACAGGUAGGUCGCCGAUAUAAAUAUUGGGUAUUAUAUUAU [AstrosExyArgA#2] | 0.0239 | 0.0336 | 0.0393 | 0.029 | 0.0285
AUACAUGAGGAUCACCCAUGUCCUCGUGAUCGAGGACCGGUACGGCCGCCACUCGGUCCUCGCGAGGAGGAGUCAAAGACUCCUA [Omei Trp A SS A v6] | 0.0972 |  | 0.23 | 0.24 | 
UUUUACGGCGAUCUGGGUUUACCAGAUCGGCGAGGACCGGUACGGCCGCCACUCGUGUUUCUUUAACAUGAGGAUCACCCAUGUA [SSTA #1] | 0.0324 | 0.0384 | 0.0773 | 0.0509 | 0.016
GGCCUUGCGGGCGCCCGCAAGGCCGCGGAUACCAGCGAGGUCCAUCGCCCUUGGCAGCCGAACAUGAGGAUCACCCAUGUCGGUU [Same State - Theophylline A Attempt #6 (HarryS)] | 0.00984 |  | 0.0137 |  | 0.0113
UACAUGAGGAUCACCCAUGUAUGAAUGGAUACCAGAUAAAAUAAGGUCCCUUGGCAGCUAGUGAAUCGAGGGUGGGUAUCAUGAU [#13 Exclusion-TheophyllineA] | 0.0106 |  | 0.0128 |  | 0.0102

Sequence | apparent KD of MS2 coat protein (input ligand: arginine 13.2 mM) [µM] | apparent KD of MS2 coat protein (input ligand: none) [µM] | apparent KD of MS2 coat protein [1] [µM] | apparent KD of MS2 coat protein [2] [µM] | apparent KD of MS2 coat protein [3] [µM]
AUGUUUGUGUGAGAUACCAGUGAGGCCACAUGAGGAUCACCCAUGUCCCUCACUCCGGCCCACCCUUGGCAGCUCUUAUAGAAAA [Exclusion Theophylline B GF 26] | 0.00881 |  | 0.0154 |  | 0.00979
CGGUAUGGGACGGCCGCCACUAUUAUGUAACAAAAUAAACAUGAGGAUCACCCAUGUACAUGGGAUAGGACCGGGUCCUAUAGCG [#23 Same State - Tryptophan B] | 0.0198 | 0.0557 | 0.0709 | 0.133 | 0.0177
GGGCGUGUGGCGCGGCGUGCUCCGCUCCGUCGAGGACCGGUACGGCCGCCACUCGACAUGAGGAUCACCCAUGUGCGAGCUCGCG [#1 Exclusion - Tryptophan A Attempt #11 (HarryS)] | 0.0176 | 0.0338 | 0.0356 | 0.0446 | 0.154
GGGUUACUCUAUGAUACCAGUUCCAUGCCGAAACCUGUGUACAUGAGGAUCACCCAUGUGAACCCUUGGCAGCAUUAAUCAACUG [theeternabot_exclusion_MS2_Theo_B_35] | 0.0515 |  | 0.163 |  | 0.0695
CGAUAUAUAGCGGCCGCCACUUACUCAUGAGGUAACAACAUGAGGAUCACCCAUGUUUGAGGAUCAAGGACCGGGCUAUGUAUCG [AstrosSSTryB#14] | 0.0249 |  | 0.032 | 0.0294 | 
AGCUCGCUUCCUCAAGCGUCAAAGACGCGUCGAGGACCGGUACGGCCGCCACUCGACCUGAGGAUCACCCGGGUCUAAGCGAGCA [TrypAX 8 #SwitchBubble #AlternativeMS2 #MS2Late #CuTurnoff] | 0.0458 | 0.115 | 0.136 | 0.177 | 0.325
GUAAAUUAUAGAAGGAGCGUCGAAAAUGGGUAAACAUGAGGAUCACCCAUGUAAAGGGAACGACAGGUAGGUCGCUAUAAUUUAC [AstromonsSSArgB#15] | 0.116 | 0.17 | 0.19 | 0.259 | 0.167
CGCACAUGAGGAUCACCCAUGUGAGGGCGACGAGGACCGGUACGGCCGCCACUCGCAAAACAUGAGGAUCACCCAUGUGCCGCCG [SSTA DOUBLE!!! :-D #3] | 0.0197 | 0.0193 | 0.0427 | 0.0291 | 0.0203
GGUAUGUAUUCGGAAACGAAUGCAUACCAACGAGGACCGGUACGGCCGCCACUCGGCCGUGAUCAACAUGAGGAUCACCCAUGUA [Ex Tryptophan A 6] | 0.0163 |  | 0.0215 | 0.0202 | 
GAAUUUAUUUGAAGGAGCGUCGAAAAUGGGUAAACAUGAGGAUCACCCAUGUAAAGGGAACGACAGGUAGGUCGCAAAUGGAUUC [AstromonsSSArgB#27] | 0.126 | 0.206 | 0.259 | 0.224 | 0.188
AGAUGUAGCGGAAGGAGCGACAUGAGGAUCACCCAUGUCUCCCGUUGUGGGAGUUCCUUAGGUCAGGUAGGUCGCCGUUACGUCA [Omei Arg B SS B v2] | 0.121 | 0.23 | 0.153 | 0.259 | 0.132
CGCACAUGAGGAUCACCCAUGUGAGGGCAUCGAGGACCGGUACGGCCGCCACUCGCAGGACAUGAGGAUCACCCAUGUGCCGCCG [SSTA DOUBLE!!! :-D #5] | 0.0221 | 0.0343 | 0.0529 | 0.0472 | 0.0244
GGUCUCUGGAGCGAUACCAGCUUGAUCGUACUGGCCUGGUACAUGAGGAUCACCCAUGUAAGCCCUUGGCAGCGCUCCAGAGACC [#1 Exclusion - Theophylline B Attempt #8 (HarryS)] | 0.0118 |  | 0.0163 |  | 0.0112
GCUGCCAUACGAAGGAGCGCUGGUGUAGUGCGGCGAACAUGAGGAUCACCCAUGUGGCAGCAGCAGGUAGGUCGCGUAUGGCAGC [EAB #14] | 0.0123 | 0.0112 | 0.0146 | 0.0126 | 0.011
AGAUUUAUUCUGACCGGGCUCAUUCCUGAAGGAGCGCAGAACAAUGCAGGUAGGUCGCAGGACAUGAGGAUCACCCAUGUCAGGC [Inmainzais] | 0.0155 | 0.0221 | 0.0302 | 0.0272 | 0.0246
GGGAGGGAGGCGGCCGCCACUGAUUUUCAUAUAUAUAUAACAUGAGGAUCACCCAUGUGGAUAUGCAGGACCGGGCCUUUUUUUU [aaaJ] | 0.123 | 0.0222 | 0.0188 | 0.0132 | 0.0202
UCGCGAUAGAGAAGGAGCGUCAACACCACUUAACAUGAGGAUCACCCAUGUGUUACUUUAAGACAGGUAGGUCGCUCUAGCGCUU [JR_Nu_ExcArginiB_Sub027] | 0.0127 | 0.0124 | 0.0165 | 0.0142 | 0.0115
UAGACGGCCGGAAGGAGCGGUACAUGAGGAUCACCCAUGUACCUCUGGGCAUCCGUAGUGUGCCAGGUAGGUCGCCGGUUGCGGG [Tebecela] | 0.0126 | 0.0116 | 0.0125 | 0.0114 | 0.0137
